These results are taken from PMC8789040, “Directed evolution of orthogonal RNA–RBP pairs through library-vs-library in vitro selection”.

Common to all, as to settings: protein: recombinant, tags: N-term Twin-Strep-tag, C-term 6xHis
Data set [1] has as its target dL7Ae (Archaeoglobus fulgidus (printed A. …, UniProt O29494 1-119, E34K;K37E;R41E;I88G;E89G;V90G;P91G;C92S)). Nature of the data set: SPR; SPR: 10 mM HEPES pH 7.4, 150 mM NaCl, 1 mM MgCl2, 0.05% P20, 0.25 mM TCEP, 0.1 mg/ml BSA, 25 ug/ml yeast tRNA, 25 C; EMSA: 10 mM HEPES-KOH pH 7.5, 140 mM KCl, 10 mM NaCl, 1 mM MgCl2, 0.1 mM TCEP, 0.01% Tween-20, 10 ug/ml yeast tRNA (1x of the printed 5x buffer). On the technique in general: In SPR one partner is held on a chip, and binding of the other changes the refractive index at the surface.

The target of data set [2] is L7Ae (Archaeoglobus fulgidus (printed A. …, UniProt O29494 1-119)). The data set is described as above.
The target of data set [3] is L7Ae (Archaeoglobus fulgidus, UniProt O29494 2-119). As to the kind of experiment: SPR (Biacore T200, RNA captured, protein analyte); SPR running buffer: 10 mM HEPES pH 7.4, 150 mM NaCl, 0.05% Surfactant P20, 1 mM MgCl2, 0.25 mM TCEP, 0.1 mg/ml BSA, 25 ug/ml yeast tRNA, 25 C; RNA captured by its 3' docking sequence on biotinylated 2'-OMe RNA.
In data set [4] the target is dL7Ae (Archaeoglobus fulgidus, UniProt O29494 2-119, E34K;K37E;R41E;I88G;E89G;V90G;P91G;C92S). The description is as above.
Chain of dL7Ae (O29494 2-119 E34K/K37E/R41E/I88G/E89G/V90G/P91G/C92S): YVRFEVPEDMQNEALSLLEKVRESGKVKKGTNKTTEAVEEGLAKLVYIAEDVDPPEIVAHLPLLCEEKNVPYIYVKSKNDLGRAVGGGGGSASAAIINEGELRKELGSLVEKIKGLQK

Chain of L7Ae (O29494 2-119): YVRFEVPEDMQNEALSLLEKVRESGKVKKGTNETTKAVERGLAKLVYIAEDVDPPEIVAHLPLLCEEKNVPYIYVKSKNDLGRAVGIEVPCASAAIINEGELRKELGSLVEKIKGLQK
Chain of L7Ae (Archaeoglobus fulgidus (O29494 whole entry): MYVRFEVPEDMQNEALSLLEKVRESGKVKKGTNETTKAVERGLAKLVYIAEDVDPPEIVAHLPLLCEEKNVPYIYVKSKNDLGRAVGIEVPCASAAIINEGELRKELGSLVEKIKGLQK
Chain of dL7Ae (Archaeoglobus fulgidus (O29494 whole entry E34K/K37E/R41E/I88G/E89G/V90G/P91G/C92S): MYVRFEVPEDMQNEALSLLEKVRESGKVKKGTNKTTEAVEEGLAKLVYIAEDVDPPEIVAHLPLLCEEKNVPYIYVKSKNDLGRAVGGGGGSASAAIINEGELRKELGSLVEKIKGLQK

B1: Box C/D Kt (Kt_SPR) (structured_RNA)
RNA: GGAUCGCGUGAUCCGAAAGGUGACGAUCCAAAUCGACGAAAGACACAGAACG
As a reminder, the Kd is the concentration at which binding is half-saturated. Take B1: the binding result with dL7Ae [1] (hairpin with kink-turn) and in the data set with dL7Ae [4] (hairpin with kink-turn) was “no binding” in each case. Moreover, the Kd in the data set with L7Ae [2] (hairpin with kink-turn) and with L7Ae [3] (hairpin with kink-turn) was 0.0213 nM each time.

B2: dKt (dKt_SPR) (structured_RNA)
RNA: GGCUGGGGCGUCAUCCGAAAGGUGCCCCAGCCAAAUCGACGAAAGACACAGAACG
On to B2, for which the binding result is listed as “no binding” in the data set with dL7Ae [1] (hairpin, defective kink-turn); “no binding” with L7Ae [2] (hairpin, defective kink-turn); “no binding” with L7Ae [3] (hairpin, defective kink-turn); “no binding” with dL7Ae [4] (hairpin, defective kink-turn).

B3: CS1-M1 (structured_RNA)
RNA: GGUGGCUGAGAAAGGCGAAAGCCUUGUGAUGCCAUCAAAUCGACGAAAGACACAGAACG
Take B3: in the data set with L7Ae [2] (hairpin), the Kd came to 1.81 nM.

B4: CS1-M2b (structured_RNA)
RNA: GGUGGCAAAGAAAGGCGAAAGCCUUGUGAGGCCAUCAAAUCGACGAAAGACACAGAACG
Regarding B4, in the data set with L7Ae [3], the binding result is listed as “binds”.

B5: CS1-M2 (structured_RNA)
RNA: GGUGGCAUAGAAAGGCGAAAGCCUUGUGUGGCCAUCAAAUCGACGAAAGACACAGAACG
On to B5, for which the binding result with L7Ae [3] is “no binding”.

B6: CS1-M3 (structured_RNA)
RNA: GGUGGCAGUGAAAGGCGAAAGCCUUGUUAGGCCAUCAAAUCGACGAAAGACACAGAACG
Consider B6, for which the binding result in the data set with L7Ae [3] is “no binding”.

B7: CS1-M2a (structured_RNA)
RNA: GGUGGCAUAGAAAGGCGAAAGCCUUGUGAGGCCAUCAAAUCGACGAAAGACACAGAACG
For the molecule B7, the binding result in the data set with L7Ae [3] was “binds”.

B8: CS1-M2c (structured_RNA)
RNA: GGUGGCAGAGAAAGGCGAAAGCCUUGUGUGGCCAUCAAAUCGACGAAAGACACAGAACG
Take B8: in the data set with L7Ae [3], the binding result was “binds”.

B9: CS1 (structured_RNA)
RNA: GGUGGCAGAGAAAGGCGAAAGCCUUGUGAGGCCAUCAAAUCGACGAAAGACACAGAACG
With B9, the Kd with L7Ae [2] (hairpin, internal loop) is 1.49 nM.

B10: CS2 (structured_RNA)
RNA: GGAUGCAGAGAACGAAAGUUCCAUGACGCAUCCAAAUCGACGAAAGACACAGAACG
On to B10, for which the dissociation constant (Kd) in the data set with L7Ae [2] (hairpin, asymmetric internal loop (putative kink-turn)) worked out at 0.00571 nM.

B11: CS2-M2 (structured_RNA)
RNA: GGAUGCAGCGAACGAAAGUUCCAUGACGCAUCCAAAUCGACGAAAGACACAGAACG
As to B11, the binding result in the data set with L7Ae [3] is recorded as “no binding”.

B12: CS2-M4 (structured_RNA)
RNA: GGAUGCAGAGAACGAAAGUUCCAUGCCGCAUCCAAAUCGACGAAAGACACAGAACG
Regarding B12, in the data set with L7Ae [3], the binding result is on record as “binds”.

B13: CS2-M1 (structured_RNA)
RNA: GGAUGCAAAGAACGAAAGUUCCAUGACGCAUCCAAAUCGACGAAAGACACAGAACG
On to B13, for which the binding result in the data set with L7Ae [3] was “binds”.

B14: CS2-M3 (structured_RNA)
RNA: GGAUGCAGAGAACGAAAGUUCCAUUACGCAUCCAAAUCGACGAAAGACACAGAACG
In the case of B14, in the data set with L7Ae [2] (hairpin), the dissociation constant Kd stood at 200 nM.
